PMC9071374, “Identification of a WRKY transcriptional activator from Camellia sinensis that regulates methylated EGCG biosynthesis”

Target: CsWRKY57like (WRKY domain) (Camellia sinensis, UniProt A0A4S4EXI7 145-222)
Assay: EMSA; excess unlabeled probe abolishes binding; Biotin-labeled probes, 6% native PAGE; buffer, salt, pH and temperature not stated (cited refs 48, 49)
Details: protein: recombinant; tags: GST (pGEX-4T); label: biotin

CsWRKY57like (WRKY domain), sequence (A0A4S4EXI7 entry or part of it): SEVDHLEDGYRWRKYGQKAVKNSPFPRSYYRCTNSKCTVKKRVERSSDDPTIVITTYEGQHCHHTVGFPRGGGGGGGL

Binder	binding result
CsDFR promoter W-box probe (dsDNA) DNA 1: GCCCAAGCTCATATAGTCAAAAAAGTCAAAAAGCCAAAAAGTCAACCCACTTCCC DNA 2: GGGAAGTGGGTTGACTTTTTGGCTTTTTGACTTTTTTGACTATATGAGCTTGGGC	binds
CCoAOMT promoter W-box probe (dsDNA) DNA 1: TTTACTTAAAATATGGATTTTGACTTGTGATATAAAAAATTATAAATATTTT DNA 2: AAAATATTTATAATTTTTTATATCACAAGTCAAAATCCATATTTTAAGTAAA	binds
